The text below walks through data of patent publication US20170290876A1 (Novartis, published 2017).

In assay [1] the target is T1, human VEGF (human, UniProt P15692 207-395, biotinylated (site not stated)).
T1 construct: Biotinylated human VEGF generated internally; also called hVEGF; hVEGF-biotin
T1 sequence: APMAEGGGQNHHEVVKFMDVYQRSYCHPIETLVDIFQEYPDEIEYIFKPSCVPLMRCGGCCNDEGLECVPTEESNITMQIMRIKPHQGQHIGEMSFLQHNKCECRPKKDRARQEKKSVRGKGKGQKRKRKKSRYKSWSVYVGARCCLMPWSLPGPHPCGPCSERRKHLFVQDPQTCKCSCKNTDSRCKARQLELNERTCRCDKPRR
In words: Biacore SPR, hVEGF. Background: In SPR one partner is held on a chip, and binding of the other changes the refractive index at the surface.

The target of assay [2] is T1, human VEGF. The experiment in a line: Biacore SPR, hVEGF (second row labelled Y32H).
Method: (§1) At first, individual CDR residues were substituted and the affinity for hVEGF was measured by Biacore as described below. […] HC8T, and HC9T and the affinity of the resulting peptide-tagged Fab for both HA and hVEGF was measured by Biacore as described below (Table 17).
(§2) Affinity of optimized HA-binding peptide tags for HA and human VEGF were measured by Biacore. […] In order to determine target kinetics, two different formats were utilized. […] The second format is an anti-fab capture method in which the fab protein samples are captured and the target proteins flowed over at various concentrations.
(§3) The sample compartment which includes the analytes, ligands, and regeneration buffer, is kept at 15° C. All other running conditions were carried out at either 25° C. or 37° C. in 1×HBSE+P buffer. […] Data was collected at 10 Hz and analyzed using the Biacore T200 Evaluation Software (GE Healthcare®). This program uses a global fitting analysis method for the determination of rate and affinity constants for each interaction.
Assay [3] has as its target T1, human VEGF. In words: Biacore SPR, hVEGF (second row labelled Y32H); the sign of the exponent is misprinted (kd/KD of the same row = 4.9e6); second row labelled Y32H (r159), not r156.
Method: as §1, §2, §3
Assay [4] addresses T1, human VEGF. In words: Biacore SPR, hVEGF; the minus sign of the exponent is missing in print (kd/ka of the same row = 3.05e-12).
Method: as §1, §2, §3

B1: NVS4 heavy chain variant Y32H (Fab, V domains shown)
VH: EVQLVESGGGLVQPGGSLRLSCTASGFSLTDHYYMTWVRQAPGKGLEWVGFIDPDDDPYYATWAKGRFTISRDNSKNTLYLQMNSLRAEDTAVYYCAGGDHNSGWGLDIWGQGTLVTVSS
VL: EIVMTQSPSTLSASVGDRVIITCQASEIIHSWLAWYQQKPGKAPKLLIYLASTLASGVPSRFSGSGSGAEFTLTISSLQPDDFATYYCQNVYLASTNGANFGQGTKLTVLK
notes: CDR variant of NVS4; The label Y32H is printed in two rows (r156, r159) with different values
For orientation: Kd means the concentration at which binding is half-saturated. High values mean a looser complex, low ones a tighter complex. What is called koff is the first-order rate constant of dissociation. Lower therefore signals a long-lived complex. For orientation: kon means the rate constant with which the complex forms. In the case of B1, the Kd in the assay with human VEGF [1] came to 0.0204 nM; with human VEGF [2], 0.169 nM. Further, the dissociation rate constant (koff) with human VEGF [1] was determined as 0.000112 s⁻¹; with human VEGF [2], 0.000829 s⁻¹. For the same molecule, the on-rate constant (kon) in the assay with human VEGF [1] was 5.49e+06 M⁻¹ s⁻¹; in the assay with human VEGF [3], 4.91e+06 M⁻¹ s⁻¹.

B2: NVS4 light chain variant E27Q (Fab, V domains shown)
VH: EVQLVESGGGLVQPGGSLRLSCTASGFSLTDYYYMTWVRQAPGKGLEWVGFIDPDDDPYYATWAKGRFTISRDNSKNTLYLQMNSLRAEDTAVYYCAGGDHNSGWGLDIWGQGTLVTVSS
VL: EIVMTQSPSTLSASVGDRVIITCQASQIIHSWLAWYQQKPGKAPKLLIYLASTLASGVPSRFSGSGSGAEFTLTISSLQPDDFATYYCQNVYLASTNGANFGQGTKLTVLK
notes: CDR variant of NVS4
In the assay with human VEGF [1], B2 came in with a koff of 1.64e-05 s⁻¹ and a kon of 5.37e+06 M⁻¹ s⁻¹. Further, the dissociation constant Kd with human VEGF [4] was determined as 0.00306 nM.
